# Measurements published in publication PMC7223222.
# Biological target: pmE2:pFc2 fusion protein (transmembrane domain-deleted classical swine fever virus envelope glycopro (classical swine fever virus))
# Assay: SEC
substance,measurement,value
pmE2:pFc2 fusion protein (transmembrane domain-deleted classical swine fever virus envelope glycopro (Fc fusion),stoichiometry N,3
